Assay results from paper PMC2780912.

Legend:
[1] = biological target: HCV E2 on E2-CT26 cells (Hepatitis C virus (genotype 1a)) (UniProt P27958); assay: flow cytometry; conditions: Flow cytometry: 250 nM aptamer, 1e6 cells, 37 C 15 min; selection buffer 25 mM Tris-HCl, 50 mM KCl, 200 mM NaCl, 0.2 mM EDTA, 5% glycerol, 0.5 mM DTT (pH not …)
[2] = biological target: GST-E2 (Hepatitis C virus) (UniProt P27958); assay: competition (flow cytometry); conditions: Flow cytometry: 250 nM aptamer, 1e6 cells, 37 C 15 min; selection buffer 25 mM Tris-HCl, 50 mM KCl, 200 mM NaCl, 0.2 mM EDTA, 5% glycerol, 0.5 mM DTT (pH not …); scale: % inhibition of E2 binding to Huh7.5.1 cells

| Sequence | Kd [1] [nM] | binding signal [2] |
| --- | --- | --- |
| TCCATTCATGTAACGAACATAGTTTTGGCA [ZE5] | 4.29 |  |
| GAATGAGGAATAATCTAGCTCCTTCGCTGA [ZE2] | 1.05 | 80 |
| GGGCCTCGATTTAGTTCGCGGCCATAGGGC [ZE4] | 8.85 |  |
| CGCCGTATTAAGATTGGGAGACCTGGTAGA [ZE3] | 3.22 |  |
